What was measured:
[1] = target: HIV-1 gp41 of strain HIV IIIB (on infectious virus) (HIV-1 strain HIVIIIB), P04578; assay: cell-based or functional assay
[2] = target: synthetic peptide having the amino acid sequence of SEQ ID NO:36 (trimers formed therefrom) (HIV-1 (HIVIIIB)); assay: fluorescence polarization competition; 50 nM trimers of SEQ ID NO:36, 0.2 nM fluorescein-labeled HR2 peptide as competitor
[3] = target: HR2 peptide having the amino acid sequence of SEQ ID NO:33 (HIV-1); assay: surface plasmon resonance (Biacore protein chip assay)

B1: synthetic peptide having the amino acid sequence of SEQ ID NO:39 (peptide)
peptide: QARQLVSGLVQQQNNILRALEAQQHALQATVWGIKQLQARVLALERYIKDQ
modifications: not checked
- Antiviral activity against HIV IIIB, IC50 (MAGI/cMAGI infectivity assay) [1]: 0.26 µg/mL
- Antiviral activity against HIV IIIB, IC90 (MAGI/cMAGI infectivity assay) [1]: 1.2 µg/mL

Binder: QQQNNLLRAIEAQQHLLQLTVWGIKQLQARILAVERYLKDQ (modifications not checked) [HR1 peptide of native sequence having the amino acid sequence of SEQ ID NO:27]
- Antiviral activity vs. HIV IIIB, IC50 (MAGI/cMAGI infectivity assay) [1]: 4.69 µg/mL
- Antiviral activity vs. HIV IIIB, IC90 (MAGI/cMAGI infectivity assay) [1]: 23.2 µg/mL

Binder: QQQNNLLRAIEAQQHLLQLTVFGIKQLQARILAVERYLKDQ (modifications not checked) [synthetic peptide having the amino acid sequence of SEQ ID NO:43]
- Antiviral activity vs. HIV IIIB, IC50 (MAGI/cMAGI infectivity assay) [1]: 1.34 µg/mL
- Antiviral activity vs. HIV IIIB, IC90 (MAGI/cMAGI infectivity assay) [1]: 3.81 µg/mL

Binder: QQQNNLLRAIEAQQHLLQLTAWGIKQLQARILAVERYLKDQ (modifications not checked) [synthetic peptide having the amino acid sequence of SEQ ID NO:29]
- Antiviral activity vs. HIV IIIB, IC50 (MAGI/cMAGI infectivity assay) [1]: 2.81 µg/mL
- Antiviral activity vs. HIV IIIB, IC90 (MAGI/cMAGI infectivity assay) [1]: 5.86 µg/mL

B2: synthetic peptide having the amino acid sequence of SEQ ID NO:38 (peptide)
peptide: QARQLLSGIVQQQNNLLRAIEATQHAVQALVWGVKQLQARVLALERYIKDQ
modifications: not checked
- Antiviral activity against HIV IIIB, IC50 (MAGI/cMAGI infectivity assay) [1]: 0.18 µg/mL
- Antiviral activity against HIV IIIB, IC90 (MAGI/cMAGI infectivity assay) [1]: 0.88 µg/mL

Binder: WMEWDREINNYTSLIHSLIEESQNQQEKNEQELLEL (modifications not checked) [HR2 peptide having the amino acid sequence of SEQ ID NO:33]
- IC50 [2]: 68 nM

Binder: QARQLVSGLVQQQNNILRALEATQHAVQALVWGVKQLQARVLALERYIK (modifications not checked) [synthetic peptide having the amino acid sequence of SEQ ID NO:35]
- Antiviral activity against HIV IIIB, IC50 (MAGI/cMAGI infectivity assay) [1]: 0.14 µg/mL
- Antiviral activity against HIV IIIB, IC90 (MAGI/cMAGI infectivity assay) [1]: 0.69 µg/mL
- Kd [3]: 21.8 nM

Binder: QARQLVSGLVQQQNNILRALEATQHAVQALVWGVRQLQARVLALERYIK (modifications not checked) [synthetic peptide having the amino acid sequence of SEQ ID NO:37]
- Antiviral activity against HIV IIIB, IC50 (MAGI/cMAGI infectivity assay) [1]: < 0.78 µg/mL

Binder: QARQLVSGLVQQQNNILRALEATQHLVQLLVWGVKQLQARVLALERYIK (modifications not checked) [peptide having the amino acid sequence of SEQ ID NO:41]
- Antiviral activity against HIV IIIB, IC50 (MAGI/cMAGI infectivity assay) [1]: 3.89 µg/mL
- Antiviral activity against HIV IIIB, IC90 (MAGI/cMAGI infectivity assay) [1]: 14.5 µg/mL

Source: patent US20040091855A1, “Method for production of antivirals by use of HIV-derived HR1 peptides, and trimers formed therefrom” (priority 2002, published 2004)
